Measurements: the RNAGym collection of RNA variant scans (doi:10.1073/pnas.2313332121)
Fewer inactive variants are shown than the library holds.

B1: TPR 5TU (parent)
chain: GGAUCUUCUCGAUCUAACAAAAAAGACAAAUCUGCCACAAAGCUUGAGAGCAUCUUCGGAUGCAGAGGCGGCAGCCUUCGGUGGCGCGAUAGCGCCAACGUUCUCAACUAUGACACGCAAAACGCGUGCUCCGUUGAAUGGAGUUUAUCAUG

Variants of: B1
Assay: polymerase ribozyme fitness, log enrichment relative to wild type (log ratio); higher = more active; in vitro selection for triplet polymerase activity
Method in brief: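 Fitness measures genotype enrichment against wild-type enrichment on a logarithmic scale, with inverse-variance-weighted averaging of replicates. The logarithm is base 2, and genotypes were kept only with ≥10 input reads and ≥1 read per output in Illumina sequencing. The sequenced libraries came from one triplicate in vitro selection round, including frozen incubation at −7 °C, of PCR-built, transcribed mutant libraries of each subunit of a heterodimeric triplet polymerase ribozyme.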

Variant	polymerase ribozyme fitness (log ratio)
C10U C118U	-2.81
G11A G50U U82C G86A C116A	-3.47
G11U C93U A119C C149U	-3.06
G11A G48C G92U	-0.981
C10U U13G C27A U33A C75G G88A A122U	≤ -4.2
A12C C93G A98U	-3.05
G11U C14G G34U G84U C125G C149G	≤ -4.2
A12C G59A G84A C118U A121G A122C G126U	-3.86
G11A A23U A39U U53G C54U C93U A122U A142G	≤ -4.2
A12C A21G C51U G83U	-2.15
G11C G59A A73G U82G	-2.2
A12C A19U U31G A41C C93A G141A	-3.98
C10U C85A	-3.35
C10U C85G	-3.57
C10U C36U C63A C118U	≤ -4.2
A12C A52G	-0.179
C10U C35U	-3.04
A12C C14G A26U A49C G59A C131A	≤ -4.2
A12C G86C A106U A115U U144A	≤ -4.2
C10U U55A G84U	-4.1
G11A A12G C38U A41U C69U G83U	-3.51

Variant	polymerase ribozyme fitness (log ratio)
G11A U55A U101G	-1.01
C10U C69U A147C U148G C149G	≤ -4.2
G11U A26U U61G G84U C85A C96A U139A	≤ -4.2
C10U C27U U55A G59C G84A	≤ -4.2
G11C C18G A23C G48A G88U C93G U144A	≤ -4.2
A12C C93U	-2.17
G11C A66U C96A C108G	≤ -4.2
G11U G48C C79A C93G A119G G141U	≤ -4.2
G11A U104A A119U G136A U144A	-2.19
G11U C76A G83U C85A A137G	≤ -4.2
G11U A26U G83A	-4.06
A12C A16G U55A	-2.45
G11A A24G A41U C51A G59A G80A G84U U90A	≤ -4.2
A12C C27U G34U C63U C93A	-4.1
G11C G25C A28G C36G C75U C96U A115U A122U	-3.98
C10U U15C A29U C95U	≤ -4.2
G11C U148G	≤ -4.2
C10U U44A U102G A119C A121G A137C G143A	≤ -4.2
G11A A21C A24C C43U C85A U111C	≤ -4.2
C10U C116U A147C	-3.39
G11U C14U C72U G143A	≤ -4.2

Variant	polymerase ribozyme fitness (log ratio)
C10U C27U C35G C87G C96U U148G	≤ -4.2
G11U A73U G81A G83C G86U G126C G136C	≤ -4.2
G11A G25C G50A A52G C75G U90G C103U U144A	≤ -4.2
G11U U13A A17U A26U A41C U45A C87A C108U A142C A147U	≤ -4.2
C10U G50U C95U	-3.16
G11A A17C A39C	-3.25
G11U C96G	-1.31
G11C A20U G86C C99G G136C U145G A147C	≤ -4.2
A12C G71U C93U A97G C103U C131G G141C	≤ -4.2
G11A A40C A49C G74C C85A C95G G100C A147U	≤ -4.2
C10U G88U	≤ -4.2
G11C G46C G59C G92U	-3.55
A12C C38A C93U	-1.62
G11A C27A A37C G59C G83A G86A G92A U102G G117U	≤ -4.2
G11U G86C	-3.55
C10U C93A	-3.86
A12C A37C C72A U90G U101A C103U A138G A142U	≤ -4.2
G11A U15G G46A A47G A60G G92C C96A	≤ -4.2
C10U G42C G88U C105G G143U	≤ -4.2
G11A U134A	-3.6
G11A G67A C79G C87A C114G A137G	≤ -4.2

Variant	polymerase ribozyme fitness (log ratio)
A12C G58C C96G	-1.07
G11C U31C G59C C76A G84U U104A A107U	≤ -4.2
G11U C87G	-4.09
G11C C14G C87A A121C U144A	≤ -4.2
C10U C51G A52U C87A C123U G141C	≤ -4.2
G11U C14G G34U G84U G141U	≤ -4.2
A12C A23C C54A G81U G92C C99A	≤ -4.2
G11A C54U U61A C95A C149G	≤ -4.2
C10U U45A C99A	≤ -4.2
C10U C14U A19C U55A G59U A97U C105A A115U G141U U148C	≤ -4.2
C10U G42C C69A C95G A142G A150G	≤ -4.2
G11U U33G A66C G84A G128U A137C U145A	≤ -4.2
C10U G124C U139G U148C	≤ -4.2
G11A C85G G94U	-0.903
G11C A52G G84A G133C G141A	≤ -4.2
A12C A29U A66G U101G C131G	≤ -4.2
G11U A41U C93U C99A U104G C118U G140U G152U	-4.02
A12C A20U U61A G92U C131A	≤ -4.2
C10U U13C A17U C76A C105U	≤ -4.2
G11A C14G A19U C27A U31C C118G	≤ -4.2
